167 variants from the RNAGym collection of RNA variant scans (doi:10.1073/pnas.2313332121) can be followed below.

First the molecules themselves.
B1: TPR t1 (parent)
chain: GACCAAUCUGCCCUCAGAGCUCGAGAACAUCUUCGGAUGCAGAGGAGGCAGGCUUCGGUGGCGCGAUAGCGCCAACGUCCUCAACCUCCAAUGCAUCCCACCACAUGAUGAUGCCUGAAGAGCCUUGGUUUUUUG

In the data set the parent is B1. The data set is described as follows: polymerase ribozyme fitness, log enrichment relative to wild type (log ratio); higher = more active; in vitro selection for triplet polymerase activity. The gist of the method:
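In triplicate, a single round of in vitro selection was run on each mutant library, PCR-built and transcribed, covering one subunit of a heterodimeric triplet polymerase ribozyme. Frozen incubation at −7 °C followed annealing with a biotinylated primer, partner subunit and triplets, and extended constructs were then gel-excised, streptavidin-captured and taken through RT-PCR. Fitness is the logarithm of genotype enrichment over wild-type enrichment, from inverse-variance-weighted replicate averages of Illumina-sequenced inputs and outputs. […] only genotypes with ≥10 input reads and ≥1 read per output were kept.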
With C73U C79G, the “polymerase ribozyme fitness (log ratio)” value was -2.02.
On to C72U G120U, for which the “polymerase ribozyme fitness (log ratio)” value was -0.256.
C76U C86U A91U: the “polymerase ribozyme fitness (log ratio)” value was -3.49.
In the case of C72U C85G, the “polymerase ribozyme fitness (log ratio)” value is -2.48.
In the case of U78G A95G U125G, the “polymerase ribozyme fitness (log ratio)” value is -1.07.
To G77U C82U G107A U112C belongs -5.86; to C72U C123U, 0.155.
To U78C U96G belongs -0.935.
To C72U C101U belongs -0.522.
As to C72U C73A A91U U131C U132C, the “polymerase ribozyme fitness (log ratio)” value is -2.72.
To C73A U87C belongs 0.572; to C73U U133A, 0.4.
To C80G C104U belongs -5.71.
To G77A G93A C124A belongs 1.34.
Regarding U78A C114G, the “polymerase ribozyme fitness (log ratio)” value was -2.43.
The figure for U78A C97A is -4.8; for C79A C82U it is -0.745.
Consider C73U G117A, for which the “polymerase ribozyme fitness (log ratio)” value worked out at 0.149.
For U78C A83U C115A, the “polymerase ribozyme fitness (log ratio)” value was -0.234.
To C76U U125A belongs -0.353; to U78A U87G, -0.804.
The figure for C80A G113A G135A is -3.66.
Consider C72U U133A, for which the “polymerase ribozyme fitness (log ratio)” value is -0.682.
The figure for A74C U133A is -0.0752; for C73A G120U it is 0.347; for C73A G120A it is 0.528.
To U78A G117C A121C belongs -5.24; to G77A C94G, -1.19.
Consider C73U U81A C98A G113A G117U U131G, for which the “polymerase ribozyme fitness (log ratio)” value was -5.03.
The figure for C73U U116C is -0.498; for C73A C101U G110U it is -1.75; for A74G U109G it is -4.6.
On to U78C C85G C124A, for which the “polymerase ribozyme fitness (log ratio)” value was -0.513.
The figure for C79G U131G is -1.06; for C79A C99A it is -6.57; for C73U U81G C82G C123A it is 0.626.
The figure for C79G C124G is -0.0918.
In the case of C72U G120C C123G, the “polymerase ribozyme fitness (log ratio)” value came out at 0.164.
To C72U C79G G113A belongs -4.23; to C72U C76U, 0.954; to C76G A84U U133G, -0.998.
To C72U U78C U106C G117A A118U U125G belongs -5.09.
To C72U A111U belongs -2.46; to U78C C94G A95G A118U, -0.801.
Regarding C73U C114U C123A, the “polymerase ribozyme fitness (log ratio)” value is -3.41.
To C76U G117C belongs -3.98; to C72U G77C C114U, -2.28.
On to C79G G93U C115G, for which the “polymerase ribozyme fitness (log ratio)” value is -4.32.
The figure for C73G G117A A121U is -0.326; for C72U G93U C123G it is -1.42; for C73G G128A it is -2.13.
For the variant C76U C82A C88U, the “polymerase ribozyme fitness (log ratio)” value is -1.25.
The figure for C79G U126G is -2.94.
The figure for C73U C115G is -1.77; for C79G C89A G127U it is -4.91; for G77A A91G it is -1.01.
The figure for C73U G122A is -0.427; for C73U A91U U96A U112A G120U it is -3.6; for G77C U129A it is -1.42.
With A75U A111C, the “polymerase ribozyme fitness (log ratio)” value is 0.255.
The figure for C73G U81G is -3.66; for A74C C82U A95C it is -0.152.
The figure for C72U U96G is -1.42; for G77U G122A U130G it is -0.666.
The figure for C73A A100C A119U is -1.6; for C73G U96G C102A it is -3.86; for C79U G110C it is -2.71.
Regarding C72U G110C, the “polymerase ribozyme fitness (log ratio)” value is -4.19.
Regarding U78C A111G C124A, the “polymerase ribozyme fitness (log ratio)” value came to 1.04.
The figure for C73U C114G is -1.76.
The figure for C80A U96C is -3.2; for C73U A83U C104A G110U it is -4.18.
The figure for U78A C123A is 0.278; for A74C A105C it is -2.34.
Take C72U A108G: the “polymerase ribozyme fitness (log ratio)” value was -1.96.
The figure for G77U U78C U87G A121U U130G is 2.02; for C73G C124A U130G it is 1.1.
To C72U U78C C97A belongs -4.87.
The figure for C79A G110A is -2.55.
A75G C94G: the “polymerase ribozyme fitness (log ratio)” value is -1.19.
To U78C A83C belongs 0.0151; to A74U G113A U129A, -1.94; to U78C U87G U126A, -2.18.
The figure for C73U C88U U92G is -2.64; for G77C C86G it is -1.47.
For the variant C73A U81A A90G, the “polymerase ribozyme fitness (log ratio)” value is -0.106.
The figure for C73G G120C G128U is -1.34; for U78C G93A U112C G128U it is -1.32; for C80G C124A it is -5.18.
For A74C U106A G120U C124G, the “polymerase ribozyme fitness (log ratio)” value was found to be 1.17.
The figure for C72U C98A is -4.69.
The figure for C73A G107C is -4.16; for A74C U96A G117C it is -5.37; for C80A C123U it is -2.06.
To C72U U129A belongs -1.42; to G77A C85A, -2.93; to U78A G117A G128C, -5.04.
Consider A74U U78G U131G, for which the “polymerase ribozyme fitness (log ratio)” value was -1.29.
To C73G C123A belongs 0.232.
To C72U C79U U96A G113U belongs -4.45; to A75U U81A G113C U130C, -3.89.
To C73A C79G belongs -2.94; to C73G C101A G120C, -0.681.
With G77C U92C G122A, the “polymerase ribozyme fitness (log ratio)” value is -2.81.
A74U U87A C102U C104A: the “polymerase ribozyme fitness (log ratio)” value is -2.53.
The figure for A75U C76G C88G C89U A90G is -2.47; for C73A U92G it is -2.07; for G77A G120U it is -0.0426.
To C72U C79G belongs -1.97; to A74C U109A, -5.88.
The figure for A74U C80U C82G is -0.403.
As to C80A C124A, the “polymerase ribozyme fitness (log ratio)” value was -0.56.
To C73U A90G A121C belongs 2.05; to A74U G110A, -1.3.
To C73A G113A U131A belongs -1.4; to C73G A84U U112C, 0.269.
To C73G G122U C123G belongs 0.776; to C73U C76U C97U U112A U129A, -1.35; to U78G C89A, -3.29.
As to C72U G107C U109A U130A, the “polymerase ribozyme fitness (log ratio)” value is -5.31.
The figure for C79U C80A is -3.65; for A74U U112A G128A it is -1.59; for C73G C98A it is -6.22.
The figure for C79G C89U G117A is -4.75.
Consider U78C U109A G128A, for which the “polymerase ribozyme fitness (log ratio)” value is -4.56.
The figure for G77C G117U is -2.55.
The figure for C79U C80U U116C is -4.27.
The figure for C73A G120U A121C is 0.179; for C76A G120U it is -0.741; for G77C C89U G128C it is -3.81.
With C72U A103C, the “polymerase ribozyme fitness (log ratio)” value is -4.5.
The figure for C73U C97A U106C is -5.37; for C72U U116A it is -3.04.
To C73A C94G belongs -0.66; to C73A C94A, -0.492; to C76U C88A, -1.29.
The figure for C76G C98A is -4.09; for C76G C99A U112A it is -4.02; for C72U C94A U125A it is -1.59.
For the variant C73U A84U, the “polymerase ribozyme fitness (log ratio)” value was -0.363.
For G77C U96A, the “polymerase ribozyme fitness (log ratio)” value was -1.58.
To C73A G93A U131G belongs -0.498.
To C72U U116A G120U belongs -1.54.
In the case of C79G A84C C104A, the “polymerase ribozyme fitness (log ratio)” value is -4.75.
The figure for C73G C86U U109A is -6.23; for C73U A91G C104U U112A G113U it is -0.254; for U78G C114G U129A it is -4.16.
To C73G G93C belongs -2.05; to C73U A84G A90U A103G U109A C124A, -4.51.
On to C73A C101G A119U, for which the “polymerase ribozyme fitness (log ratio)” value was -1.93.
To A74C C79A U131G belongs -0.848; to U78C G110C, -3.67.
With G77A A90G, the “polymerase ribozyme fitness (log ratio)” value was -0.174.
The figure for A74G C80A C82U A118U is -2.93; for C76G C102U C104A it is -1.03; for C73G C102U A119G it is -1.29.
Take C73U C79G A84G U96C: the “polymerase ribozyme fitness (log ratio)” value is -2.54.
The figure for C79U C80U C104U is -1.54; for U78G A95C it is -0.597; for C72U C79A C115U it is -3.58.
The figure for G77U C82U is -0.811; for A74G A83U U106C it is -0.743; for C73G A111U it is -4.08.
To C73U G110C belongs -3.31; to C73U G110U, -1.17.
With U78C A83C C94U G110A A118U G120U U132C, the “polymerase ribozyme fitness (log ratio)” value is -2.85.
For the variant G77U C94U C102A C115A, the “polymerase ribozyme fitness (log ratio)” value was -2.01.
